Test results reported in patent US20190022241A1 (AbbVie / Abbott, published 2019).
Values belong to the binder of their own block, whether it stands above or below them.

Columns and labels:
[1] = biological target: T1, SEZ6 Sushi Domain 5 (amino acids 817-878) on yeast (human, UniProt Q53EL9 836-897); test: yeast display, flow cytometry;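 further: antibody binding to individual SEZ6 domains displayed on yeast, measured by flow cytometry, antibody at 50 nM purified or hybridoma supernatant diluted 1:2, 90 min on ice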
T1 construct: yeast display

[2] = biological target: T2, SEZ6 Sushi Domain 3 (amino acids 690-748) on yeast (human, UniProt Q53EL9 709-767); test: yeast display, flow cytometry;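 further: antibody binding to individual SEZ6 domains displayed on yeast, measured by flow cytometry, antibody at 50 nM purified or hybridoma supernatant diluted 1:2, 90 min on ice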
T2 construct: yeast display

[3] = biological target: T3, hSEZ6-ECD-His (human, UniProt Q53EL9 20-925); test: immunohistochemistry, signal competed by soluble antigen
T3 construct: the whole entry is named; also called recombinant SEZ6-His; human recombinant SEZ6-His

[4] = biological target: T4, SEZ6 Sushi Domain 4 (amino acids 750-813) on yeast (human, UniProt Q53EL9 769-832); test: yeast display, flow cytometry;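 further: antibody binding to individual SEZ6 domains displayed on yeast, measured by flow cytometry, antibody at 50 nM purified or hybridoma supernatant diluted 1:2, 90 min on ice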
T4 construct: yeast display

[5] = biological target: T5, human SEZ6 on HEK-293T cells (human, UniProt Q53EL9 20-994); test: immunohistochemistry
T5 construct: also called h293T-HuSEZ6

[6] = biological target: T6, SEZ6 Sushi Domain 2 (amino acids 511-572) on yeast (human, UniProt Q53EL9 530-591); test: yeast display, flow cytometry;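 further: antibody binding to individual SEZ6 domains displayed on yeast, measured by flow cytometry, antibody at 50 nM purified or hybridoma supernatant diluted 1:2, 90 min on ice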
T6 construct: yeast display
T6 sequence: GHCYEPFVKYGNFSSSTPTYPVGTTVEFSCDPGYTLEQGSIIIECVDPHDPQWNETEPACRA

- binding result [1]: binds
B1: SC17.74 (antibody, V domains shown)
VH: QVQLKQSGPGLVAPSQSLSITCTVSGFSLTSYGVDWVRQSPGKGLEWLGVIWGGGSTNYNSALKSRLSITKDNSKSQVFLKMNSLQTDDTAMYYCASGDYDGSLWFAYWGQGTLVTVSA
VL: DIQMTQSSSYLSVSLGGRVTITCKASDHINNWLAWYQQKPGNAPRLLISGATSLETGVPSRFSGSGSGKDYTLSITSLQTEDVATYYCQQYWSTPPTFGAGTKLELK
notes: murine mAb

- binding result [2]: binds
B2: SC17.95 (antibody, V domains shown)
VH: EVELQQSGPELVKPGASVKISCKTSGNTYTEYTMQWVKLSHGKSLEWIGGINPNNGITSYNQKFKGKATLTVDKSSSTAYMELRSLKSEDSAVYYCARAGLGNYVWAMDYWGQGASVTVSS
VL: DIQMTQTTSSLSASLGDRVTISCSASQGINNYLNWYQQKPDGTVTLLIYYTSSLHSGVPSRFSGSGSGTDYSLTISNLEPEDIATYYCQQYSKLPWTFGGGTKLEIK
notes: murine mAb

- binding result [3]: binds
- binding result [4]: binds
- binding result [5]: binds
B3: SC17.140 (antibody, V domains shown)
VH: EVQLQQSGPELMKPGASVKMSCKASGYTFTDYNMHWVKQNQGKSLEWIGEINPNTGGTGYNQKFKGKATLTVDKFSSTAFIELRSLTSEDSAIYYCTRGGYDHYWYFDVWGAGTTVTVSS
VL: QIVLTQSPAIMSASPGEKVTMTCSASSSVSYMHWYQQKSGTSPKRWIYDTSKLASGVPARFSGSGSGTSYSLTISSMEAEDAATYYCQQWSSTPPTFGSGTKLEIK
notes: murine mAb

- binding result [6]: binds
B4: SC17.90 (antibody, V domains shown)
VL: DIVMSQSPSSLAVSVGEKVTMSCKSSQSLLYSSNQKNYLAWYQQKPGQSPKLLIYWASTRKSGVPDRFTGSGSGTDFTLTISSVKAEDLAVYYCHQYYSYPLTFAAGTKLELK
VH: QVQLQQPGSVLVRPGASVKLSCKASGYTFTSYWMHWVKQRPGQGLEWIGEIHPNNGSTNYNEKFKGKATLTVDTSSSTAYVDLSSLTSEDSAVYYCARWTLFTYWGQGTLVTVSA
notes: murine mAb; also called SC17.155 (duplicate)
